Experimental findings from patent publication US20120315270A1 (UNITED STATES OF AMERICA AS REPRESENTED BY THE, published 2012) are described below.

Where a chain is given by its changes, count along the chain named. Like-named read-outs stand apart in the source and are kept apart here.

Assay [1] deals with T1, Motavizumab fragment of antigen binding (Fab).
T1 construct: also called motavizumab Fab
Nature of the assay: SPR (Biacore), motavizumab Fab immobilised, immunogen injected. A general note: In SPR one partner is held on a chip, and binding of the other changes the refractive index at the surface.

For assay [2], the target named is T1, Motavizumab fragment of antigen binding …. Described as above. The source holds these as a separate data set.
Assay [3] has as its target motavizumab (as used in ITC). Nature of the assay: ITC. (Isothermal titration calorimetry measures the heat released or taken up as one component is titrated into another.)
In assay [4] the target is RSV F glycoprotein on GFP-expressing RSV (respiratory syncytial virus, UniProt P03420 26-574). The assay is described as follows: cell-based or functional assay.
Assay [5] concerns the target 1lp1b-003 F2Y H15N. The assay is described as follows: co-crystallization.
Assay [6] concerns the target T2, 1lp1b-003_K272E.
T2 construct: also called 1lp1b(K272E)
The assay is described as follows: SPR (Example 7).

B1: 1s2xa_002 (designed binder)
chain: GSPNSRVDELGFNEAERQKILDSNSSLMRNANEVRDKFIQNYATSLKDSNDPQDFLRRVQELRINMQKNFISFDAYYNYLNNLVLASANRASQELSFINDTIKNNDTKKLFSNEAADNFNNFTADEVARISDLVASYLPREYLPPFIDGNMMGVAFQILGIDDFGKKLNEIVQDIGTKY
As a reminder, the Kd is a measure of binding affinity in units of concentration. In the case of B1, the dissociation constant Kd in assay [1] and in assay [2] was 3.64 µM throughout.

B2: 1s2xa_001 (designed binder)
chain: B1 chain with A91C, I98A, A115I
B2: the equilibrium dissociation constant (Kd) in assay [1] and in assay [2] was 4.75 µM in each case.

B3: 2eiaa_001 (designed binder)
chain: APRGYTTWVNTIQTNGLLNEASQNLFGILSVDATSEEMNAFLDVVPGQAGQKQILLDAIDKIADDWDNRHPLPNAPLVAPPQGPIPMTARFIRGLGVPRERQMEPAFDQFRQTYRQWIIEAMSEGIKVMIGKPKAQNIRQGAKEPYPEFVSRLLSQINDEGHPNDIKKLRSNTLTIQNANEECRNAMRHLRPSDTGAEKMYACRDIG
For B3, the binding result in assay [2] was “no binding”.

B4: 1s2xa_003 (designed binder)
chain: GSPNSRVDELGFNEAERQKILDSNSSLMRNANEVRDKFIQNYATSLKDSNDPQDFLRRVQELRINMQKNFISFDAYYNYLNNLVLASANRASQELSFANDTIKNNDTKKLFSNEIADNFNNFTADEVARISDLVASYLPREYLPPFIDGNMMGVAFQILGIDDFGKKLNEIVQDIGTK
notes: also called Cag-Z
Consider B4, for which, in assay [3], the “-TdS” value amounted to 9.9; the affinity, expressed as Kd, was 0.147 µM; the dH is -19.2. In assay [1], this molecule showed an equilibrium dissociation constant (Kd) of 3 µM. This molecule also showed a Kd in assay [2] of 3 µM.

B5: 1s2xa_004 (designed binder)
chain: B4 chain with A98I, I115A
Turning to B5, in assay [3], the “-TdS” value is 10.7; the affinity, expressed as Kd, was 0.275 µM; the dH is -19.6. In addition, in assay [2], the Kd turned out to be 3.95 µM.

B6: motavizumab IgG (antibody, V domains shown)
VH: QVTLRESGPALVKPTQTLTLTCTFSGFSLSTAGMSVGWIRQPPGKALEWLADIWWDDKKHYNPSLKDRLTISKDTSKNQVVLKVTNMDPADTATYYCARDMIFNFYFDVWGQGTTVTVSS
VL: DIQMTQSPSTLSASVGDRVTITCSASSRVGYMHWYQQKPGKAPKLLIYDTSKLASGVPSRFSGSGSGTEFTLTISSLQPDDFATYYCFQGSGYPFTFGGGTKVEIK
Take B6: the “EC50 (read off the curve), neutralization of GFP-expressing RSV on HEp-2 cells, flow cytometry” value in assay [4] is about 0.06 nM.

B7: motavizumab (format in the assay not stated) (antibody, V domains shown)
VH: B6 VH
VL: B6 VL
On to B7, for which the binding result in assay [5] is “binds”.

B8: motavizumab Fab (Fab, V domains shown)
VH: B6 VH
VL: B6 VL
notes: also called the Fab
Consider B8, for which the binding result in assay [6] is given as “no binding”.
